According to patent publication US20260265321A1, “PEPTIDE AND POLYPEPTIDE INHIBITING THE NF-KB SIGNALING PATHWAY” (Centre National de la Recherche Scientifique, priority 2023, published 2026):
Residue numbers refer to the chain shown, from its start. Blank lines part the entries; values can stand above or below the binder they belong to.

Assays:
[1] = biological target: T1, G1-IKKβ L654D/W655D (GPCA construct) (human, UniProt O14920 1-756); test: GPCA in HEK293T cells
T1 construct: not shown: Gluc1 fragment of Gaussia princeps luciferase and flexible 20 amino acid linker, N-terminal
T1 sequence (looked up): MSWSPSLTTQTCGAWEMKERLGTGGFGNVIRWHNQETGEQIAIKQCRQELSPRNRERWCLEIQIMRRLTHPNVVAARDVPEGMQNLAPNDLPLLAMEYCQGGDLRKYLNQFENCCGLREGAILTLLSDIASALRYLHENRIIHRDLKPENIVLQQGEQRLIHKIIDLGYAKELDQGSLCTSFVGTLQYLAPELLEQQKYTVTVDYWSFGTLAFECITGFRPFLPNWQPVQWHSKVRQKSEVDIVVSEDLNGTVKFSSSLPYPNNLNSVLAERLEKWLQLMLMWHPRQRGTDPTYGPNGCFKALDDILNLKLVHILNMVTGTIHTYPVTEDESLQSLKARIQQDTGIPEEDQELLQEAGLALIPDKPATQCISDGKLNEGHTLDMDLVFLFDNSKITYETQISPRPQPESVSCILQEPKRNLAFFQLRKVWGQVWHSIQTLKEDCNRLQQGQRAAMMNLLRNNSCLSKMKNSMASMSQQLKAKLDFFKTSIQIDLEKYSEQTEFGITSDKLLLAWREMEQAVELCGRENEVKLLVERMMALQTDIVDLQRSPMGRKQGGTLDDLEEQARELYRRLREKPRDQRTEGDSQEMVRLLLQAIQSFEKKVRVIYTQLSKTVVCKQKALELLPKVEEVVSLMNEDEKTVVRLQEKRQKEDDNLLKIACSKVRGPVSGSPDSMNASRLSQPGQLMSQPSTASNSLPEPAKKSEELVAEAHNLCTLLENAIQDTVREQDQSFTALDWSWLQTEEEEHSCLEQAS
Description: (§1) HEK293T cells were transfected using the reverse transfection method. Transfection mixes containing 100 ng of pSPICA-N2 and 100 ng of pSPICA-N1 plasmids expressing test proteins plus JetPEI® (Polyplus transfection) were dispensed in white 96-well plates. HEK293T cells were then seeded on the DNA mixes at a concentration of 4.2×10^4 cells per well. 48 hours after transfection, cells were washed with 50 μl of PBS and lysed with 40 μl of Renilla lysis buffer (Promega, E2820) for 30 minutes with agitation. Gaussia princeps luciferase enzymatic activity was measured using a Berthold Centro LB960 luminometer by injecting 50 μl per well of luciferase substrate reagent (Promega, E2820) and counting luminescence for 10 seconds. Results are expressed as a fold change normalized over the sum of controls, specified herein as normalized luminescence ratio (NLR) 29. For a given protein pair A/B, NLR=(Gluc1-A+Gluc2-B)/[(Gluc1-A+Gluc2)+(Gluc1+Gluc2-B)]. All interactions were measured in three independent experiments, with each experiment being carried out in triplicate. The expression levels of Gluc1- and Gluc2-fused proteins were checked by Western blotting. 24 hours post-transfection, HEK293T cells were collected, lysed by incubation on ice and centrifuged. Aliquots of cleared supernatants were loaded onto an 10% SDS-PAGE gel.

[2] = biological target: T2, G1-IKKβ, full-length wt IKKβ fused to the Gluc1 fragment (human, UniProt O14920 1-756); test: GPCA (Gaussia princeps protein complementation assay) in HEK293T cells, NLR, mean ± SD of triplicates
T2 construct: Expressed in HEK293T cells for GPCA; full-length; also called Gluc1-IKKβ; not shown: Gluc1 fragment of Gaussia princeps luciferase and flexible 20 amino acid linker, N-terminal
T2 sequence (looked up): T1 sequence (looked up) with D654L, D655W
Description: as §1

[3] = biological target: T3, G1-IKKα, full-length wt IKKα fused to the Gluc1 fragment (human, UniProt O15111 1-745); test: as above
T3 construct: Expressed in HEK293T cells for GPCA; full-length; also called Gluc1-IKKα; not shown: Gluc1 fragment of Gaussia princeps luciferase and flexible 20 amino acid linker, N-terminal
T3 sequence (looked up): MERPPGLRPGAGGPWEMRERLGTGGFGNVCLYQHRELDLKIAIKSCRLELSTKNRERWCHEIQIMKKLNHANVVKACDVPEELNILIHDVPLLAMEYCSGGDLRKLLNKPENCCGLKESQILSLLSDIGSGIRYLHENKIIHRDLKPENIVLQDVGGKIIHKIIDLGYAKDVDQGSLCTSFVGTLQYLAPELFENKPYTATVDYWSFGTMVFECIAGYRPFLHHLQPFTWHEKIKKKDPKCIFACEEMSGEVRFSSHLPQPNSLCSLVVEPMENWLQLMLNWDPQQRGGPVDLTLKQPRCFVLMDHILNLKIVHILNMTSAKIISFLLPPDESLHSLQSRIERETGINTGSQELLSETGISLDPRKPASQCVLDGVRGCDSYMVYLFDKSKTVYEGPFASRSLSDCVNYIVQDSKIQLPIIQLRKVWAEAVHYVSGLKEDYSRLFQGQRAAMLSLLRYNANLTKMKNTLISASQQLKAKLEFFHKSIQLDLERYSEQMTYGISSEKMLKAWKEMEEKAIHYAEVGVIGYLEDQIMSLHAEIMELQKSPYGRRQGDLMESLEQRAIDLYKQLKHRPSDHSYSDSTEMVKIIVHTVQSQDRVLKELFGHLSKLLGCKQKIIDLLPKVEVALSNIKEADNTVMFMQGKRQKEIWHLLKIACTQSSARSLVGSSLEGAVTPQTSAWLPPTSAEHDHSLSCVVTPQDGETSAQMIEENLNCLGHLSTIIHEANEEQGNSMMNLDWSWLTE
Description: as §1

[4] = biological target: T4, IKKα(10-667) S176E/S180E homodimer, 6×His tag removed (human, UniProt O15111 10-667); test: ITC, 25 °C, 1:1 model; values called estimates
T4 construct: also called purified IKKα
T4 sequence (looked up): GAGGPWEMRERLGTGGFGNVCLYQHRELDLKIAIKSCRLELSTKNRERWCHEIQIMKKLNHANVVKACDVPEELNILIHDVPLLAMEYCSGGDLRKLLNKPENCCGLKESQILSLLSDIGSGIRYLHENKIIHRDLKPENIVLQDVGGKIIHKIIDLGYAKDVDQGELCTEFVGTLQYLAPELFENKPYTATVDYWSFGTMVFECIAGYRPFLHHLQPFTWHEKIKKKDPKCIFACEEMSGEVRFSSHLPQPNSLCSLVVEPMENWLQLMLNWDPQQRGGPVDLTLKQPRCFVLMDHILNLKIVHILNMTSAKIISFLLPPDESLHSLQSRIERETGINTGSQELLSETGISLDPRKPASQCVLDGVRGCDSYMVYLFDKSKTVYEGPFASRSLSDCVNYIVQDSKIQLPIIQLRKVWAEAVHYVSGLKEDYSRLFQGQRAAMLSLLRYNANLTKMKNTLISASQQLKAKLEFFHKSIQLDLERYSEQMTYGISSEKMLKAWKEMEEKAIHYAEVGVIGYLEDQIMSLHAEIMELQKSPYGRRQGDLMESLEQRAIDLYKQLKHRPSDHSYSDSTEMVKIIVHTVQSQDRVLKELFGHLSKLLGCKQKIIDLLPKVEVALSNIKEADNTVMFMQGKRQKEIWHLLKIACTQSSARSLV
Description: (§2) All experiments were performed in ITC buffer (20 mM HEPES pH 8.0, 150 mM NaCl, 1 mM TCEP) unless otherwise stated. […] Just before the ITC experiments, IKKα or IKKβ samples were concentrated, incubated at room temperature for 30 minutes and centrifuged at 11000 g to remove eventual precipitate. The final concentrations of IKKα and IKKβ in the sample cell varied between 22 and 50 μM depending on the measurement. […] The concentration of peptides in the syringe varied between 220 and 975 μM depending on the measurement.
(§3) All ITC experiments were performed at 25° C. The data were fitted to a 1:1 binding model. […] All data were processed using NITPIC software and global fitting of two datasets was carried out using SEDPHAD.

[5] = biological target: T4, IKKα(10-667) S176E/S180E homodimer, …; test: ITC, 25 °C, 1:1 model; values called estimates; table value; footnote calls it an estimate
Description: as §2, §3

[6] = biological target: T4, IKKα(10-667) S176E/S180E homodimer, …; test: ITC, given as a lower bound

- binding result [1]: no binding
- binding result [2]: binds
- binding result [3]: binds
B1: G2-IκBα(73-317) (other, UniProt P25963 73-317, looked up)
chain: DGDSFLHLAIIHEEKALTMEVIRQVKGDLAFLNFQNNLQQTPLHLAVITNQPEIAEALLGAGCDPELRDFRGNTPLHLACEQGCLASVGVLTQSCTTPHLHSILKATNYNGHTCLHLASIHGYLGIVELLVSLGADVNAQEPCNGRTALHLAVDLQNPDLVSLLLKCGADVNRVTYQGYSPYQLTWGRPSTRIQQQLGQLTLENLQMLPESEDEESYDTESEFTEFTEDELPYDDCVFGGQRLTL
notes: range 73-317; Expressed in HEK293T cells for GPCA; also called N-terminal truncated IκBα (73-317) construct; not shown: Gluc2 fragment of Gaussia princeps luciferase and flexible 20 amino acid linker, N-terminal

- TΔS [4]: -1.2 kcal/mol
- ΔG [4]: -5.5 kcal/mol
- ΔH [4]: -6.7 kcal/mol
- Kd [5]: ~90 µM
- Kd [6]: > 90 µM
Binder: LSSANSLYDDIECFLMELEQPA [synthetic IRF7 pep]
